Results: patent US5973116

target: human placental alkaline phosphatase (hPLAP) (human) (UniProt P05187); assay: ELISA plate with bound antigen, washed with copious amounts of 50 mM DEA

Point of comparison: H17-BSRNaseKDEL, percent washed off with 50 mM DEA 40%. Against it:
- H17-BSRNase — the same, 40%
- single-chain H17E2 antibody (scFv) — higher, > 90%
- H17-Link-BSRNaseKDEL — the same, 40%
